Reference: article PMC3574147, “Association of RNAs with Bacillus subtilis Hfq”

Biological target: T1, Hfq (Bacillus subtilis, UniProt O31796 1-73)
T1 sequence: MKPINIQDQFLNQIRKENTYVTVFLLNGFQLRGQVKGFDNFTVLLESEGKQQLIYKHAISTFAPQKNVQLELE
Test: EMSA; 10 mM Mg2+, 2.5 ng/ul yeast tRNA; 50 mM Hepes pH 7.5, 150 mM NaCl, 10 mM MgCl2, 2.5 ng/ul yeast tRNA, ~2 fmol RNA in 10 ul, 30 min at 25 C; 5% native TBE PAGE
Details: protein: recombinant; tags: His6 (pHisII vector); chain copies: 6; label: 32P (gamma-32P ATP)

B1: SR4 antitoxin RNA (structured_RNA)
RNA: GGGUAAUGAUACAAUUAUAUAAUUAUUUUUUGCAUUUUGUUUAAUUAAAUGCAAAGCUGCCCAUCAAAGGGCUUGCUCGUUGUCAAAUCUUAAAAUAAAAAGACCAGGGUGUUGGUAGCACCCUGGCUCUGUACAAGCGUAGGCCUAACCCUUCAGGUGUCCAAACUCAAGGGAAGGUCUAUUUUUU
B1: binds.
